# Measurements taken from patent publication US20200057058A1 (MIT, published 2020).
# How the values were obtained:
# [1] = target: monomeric streptavidin variant mSA2; test: calculated from [P]T of the mSA2 binding curve fit and film thickness; set-up: Calculated Density (density of binding sites within a cross-sectional area of the film): unit not given here
# Procedure: To determine the density of binding proteins within a single plane of each thin film, the concentration of accessible binding sites throughout the entire film—taken directly from the binding assay curve fits (Table 4)—was multiplied by the corresponding film thickness. When accounting for differences in film thickness, the density of oligomerized rcSso7d.SA proteins capable of binding mSA2 is found to increase […] with degree of oligomerization (Table 5). This calculated density decreases, though, between the 1×SP25k and 2×SP25k thin films, indicating a lower density of accessible binding sites in the protein domains of the oligomerized rcSso7d.SA conjugate film. The total number of predicted binding sites within each thin film assuming complete accessibility should be proportional to the […] of rcSso7d. SA in the conjugate with PNIPAM. Reasonable estimates for relative values of the predicted number of sites can thus be obtained by normalizing the weight fraction of rcSso7d. SA in each conjugate by the corresponding weight fraction in 1×SP25k. Comparing these predicted relative number of binding sites to the calculated values (FIG. 6C), all oligomeric rcSso7d.SA conjugates are found to contain fewer proteins capable of binding mSA2 than predicted. It is likely that this effect results from a combination of steric blocking of binding sites by bound mSA2 molecules as well as a lack of the free volume required to incorporate mSA2 molecules into the protein nanodomains at high degrees of binding. Despite the lower than expected binding capacity of the conjugate thin films, these biosensors contain approximately […] the quantity of accessible binding sites compared to rcSso7d.SA monolayers on a volumetric basis (Table 4). Recognizing that each plane (and a monolayer) of rcSso7d.SA proteins is roughly 1-2 nm thick,⁸⁰ the studied thin films can be determined to contain approximately 100 more planes of protein than a monolayer.
# [2] = target: monomeric streptavidin variant mSA2; test: fluorescent binding assay, labeled mSA2 in PBS on thin film; quadratic curve fit
# Procedure: (§1) The binding function of rcSso7d.SA oligomer-PNIPAM thin films was measured using fluorescently-labeled monomeric streptavidin (mSA2) and fluorescently-labeled streptavidin (SA). Details for the expression, purification, and fluorescent labeling of mSA2 are provided below. Samples were prepared by serial dilution of SA or mSA2 in PBS (pH 7.4), human urine (diluted to 50% v/v in PBS, pH 7.4), or blood serum (obtained as the supernatant by centrifuging whole blood at 1500×g for 10 minutes, then diluted to 50% v/v in PBS, pH 7.4). 0.5 μL drops of solutions containing serially diluted fluorescent mSA2 and fluorescent SA samples in PBS (pH 7.4) were gently applied to the surface of each bioconjugate thin film. Films were incubated in a sealed chamber saturated with water vapor at room temperature to prevent to prevent drying of the applied fluorescent samples. After 1 hour, films were thoroughly rinsed with water for 10 seconds (a time determined to be sufficient to remove unbound molecules from the film, see FIG. 33, dried under filtered airflow, and immediately analyzed for fluorescent signal. Fluorescence microscopy images were acquired at 4× magnification using a Cy5 filter set and exposure time of 5000 ms on an Olympus IX-81 inverted fluorescence microscope with an AxioCam HRC CCD camera. Fluorescent intensity was calculated using ImageJ software⁶⁷ by determining the average fluorescent signal in a rectangular area of the fluorescent image free of defects and occupying no less than half of the full sample application area.
# Binding assays were performed by adding serially diluted solutions of fluorescently-labeled mSA2 to thin films of each studied conjugate (FIG. 6A). To maintain consistent transport properties between samples, each oligomer was conjugated to the same previously-synthesized 25 kDa PNIPAM sample. Analyte bound to thin films was quantified using fluorescence microscopy, and binding curves were fit to the collected mean fluorescent intensity (MFI) data using the following equation: […]
# [3] = target: monomeric streptavidin variant mSA2; test: fluorescent binding assay, labeled mSA2; signal three standard deviations above blank
# Procedure: as §1
# Oligomerization of rcSso7d.SA also brings about a decrease in biosensor limit of detection (LOD). […] While all thin films display improvements up to threefold in LOD over the monolayer, the trend in LOD with respect to degree of oligomerization is non-monotonic. The primary factor that is expected to affect LOD in the studied biosensors is number of binding sites, as more binding sites enable a greater number of analyte molecules to be captured and shifts analyte-receptor equilibrium in favor of binding events.
binder,measurement,setting,value
"1xSP25k thin film (1x rcSso7d.SA-PNIPAM conjugate, 25 kDa PNIPAM) (designed binder, maleimide end-functionalized PNIPAM (25 kDa) on the N-terminal Cys; film lightly crosslinked with glutaraldehyde) MGSIHHHHHHSSGLVPRGSHMCATVKFTYQGEEKQVDISKIKIVARDGQYIDFKYDEGGGAYGYGWVSEKDAPKELLQMLEKQ",Calculated Density (density of binding sites within a cross-sectional area of the film),[1],48
same,Calculated Ratio (film thickness x [P]T relative to the 1xSP25k thin film),[1],1
same,[P]T (total concentration of accessible binding sites),[2],3.1 µM
same,limit of detection (LOD),[3],290 nM
